These are literature values, as cited in publication PMC7277390.

For orientation: Kd means the constant that tells how readily two partners part at equilibrium.

The target in the series is serum albumin (MSA) (Mus musculus) (UniProt P07724).
UniProt P07724, sequence (P07724 25-608): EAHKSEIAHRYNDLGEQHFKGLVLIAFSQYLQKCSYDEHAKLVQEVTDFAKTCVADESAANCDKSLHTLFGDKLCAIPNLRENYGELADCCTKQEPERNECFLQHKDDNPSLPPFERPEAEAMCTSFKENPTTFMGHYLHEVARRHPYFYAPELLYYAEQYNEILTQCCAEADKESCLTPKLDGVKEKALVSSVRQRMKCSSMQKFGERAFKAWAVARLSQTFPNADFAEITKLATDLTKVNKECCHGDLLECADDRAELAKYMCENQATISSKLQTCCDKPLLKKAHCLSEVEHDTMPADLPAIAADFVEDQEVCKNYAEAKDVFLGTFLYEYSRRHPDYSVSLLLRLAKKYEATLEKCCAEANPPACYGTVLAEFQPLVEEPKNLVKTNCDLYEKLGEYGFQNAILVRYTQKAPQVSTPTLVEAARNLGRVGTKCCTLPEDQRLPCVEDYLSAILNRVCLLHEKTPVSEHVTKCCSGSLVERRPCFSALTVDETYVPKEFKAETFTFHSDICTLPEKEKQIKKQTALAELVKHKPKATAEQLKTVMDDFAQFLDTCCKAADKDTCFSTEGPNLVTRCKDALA

As to FcRn (from UniProt Q61559), the Kd was 546 nM.
